In the experiment the target is miniTRIM37 RBhcc (human | T. thermophilus) (UniProt O94972). Kind of experiment: SEC-MALS. A general note: In gel filtration, larger molecules generally elute earlier.

By stoichiometry N is commonly meant the number of molecules, sites or subunits per partner or assembly. As for “miniTRIM37 RBhcc (from UniProt O94972 1-158; O94972 214-254)”, the stoichiometry N turned out to be 2.

The values are drawn from publication PMC11482875.
